In patent US20200087367A1 (ACCELERON PHARMA, published 2020):

T1: BMP10 (human, UniProt O95393 317-424)
T1 construct: also called hBMP-10; hBMP10
T1 sequence: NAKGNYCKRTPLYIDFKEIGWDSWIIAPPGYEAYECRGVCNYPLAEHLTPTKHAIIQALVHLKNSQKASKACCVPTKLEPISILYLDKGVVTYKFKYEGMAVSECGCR

T2: BMP9 (human, UniProt Q9UK05 320-429)
T2 construct: also called hBMP-9; hBMP9
T2 sequence (looked up): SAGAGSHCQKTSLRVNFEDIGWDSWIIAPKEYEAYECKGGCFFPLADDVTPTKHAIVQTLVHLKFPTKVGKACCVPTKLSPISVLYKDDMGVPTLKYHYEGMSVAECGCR

T3: BMP6 (human, UniProt P22004 382-513, limits assumed)
T3 sequence (looked up): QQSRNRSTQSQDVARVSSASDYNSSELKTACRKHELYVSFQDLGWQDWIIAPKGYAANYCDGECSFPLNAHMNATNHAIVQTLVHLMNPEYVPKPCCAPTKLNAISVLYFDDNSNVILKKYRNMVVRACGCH

T4: BMP10pro(22-315)-mFc (human, UniProt O95393 22-315)
T4 construct: also called mouse Fc equivalent construct; not shown: optional linker and mouse immunoglobulin G1 Fc domain
T4 sequence: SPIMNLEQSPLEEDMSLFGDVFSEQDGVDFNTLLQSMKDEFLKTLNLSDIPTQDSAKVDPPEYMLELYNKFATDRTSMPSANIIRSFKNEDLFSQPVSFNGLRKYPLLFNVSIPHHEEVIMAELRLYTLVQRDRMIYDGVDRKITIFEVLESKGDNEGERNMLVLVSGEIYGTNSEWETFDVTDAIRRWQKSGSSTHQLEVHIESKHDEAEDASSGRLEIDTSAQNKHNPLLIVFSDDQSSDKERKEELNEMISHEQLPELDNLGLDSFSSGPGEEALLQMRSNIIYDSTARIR

T5: BMP10pro(22-312)-mFc (human, UniProt O95393 22-312)
T5 construct: also called mouse Fc equivalent construct; not shown: optional linker and mouse immunoglobulin G1 Fc domain
T5 sequence: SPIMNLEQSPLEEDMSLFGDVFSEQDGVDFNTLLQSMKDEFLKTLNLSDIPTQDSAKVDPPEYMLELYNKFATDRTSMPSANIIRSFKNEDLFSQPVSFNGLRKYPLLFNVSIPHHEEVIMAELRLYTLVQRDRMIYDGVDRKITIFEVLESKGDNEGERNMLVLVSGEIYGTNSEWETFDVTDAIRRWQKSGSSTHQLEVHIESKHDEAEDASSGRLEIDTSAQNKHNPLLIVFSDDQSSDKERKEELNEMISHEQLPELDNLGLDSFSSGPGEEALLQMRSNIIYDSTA

B1: ActRIIB-hFc (Fc fusion)
chain: GRGEAETRECIYYNANWELERTNQSGLERCEGEQDKRLHCYASWRNSSGTIELVKKGCWLDDFNCYDRQECVATEENPQVYFCCCEGNFCNERFTHLPEAGGPEVTYEPPPTAPTGGGTHTCPPCPAPELLGGPSVFLFPPKPKDTLMISRTPEVTCVVVDVSHEDPEVKFNWYVDGVEVHNAKTKPREEQYNSTYRVVSVLTVLHQDWLNGKEYKCKVSNKALPVPIEKTISKAKGQPREPQVYTLPPSREEMTKNQVSLTCLVKGFYPSDIAVEWESNGQPENNYKTTPPVLDSDGSFFLYSKLTVDKSRWQQGNVFSCSVMHEALHNHYTQKSLSLSPGK
notes: Extracellular domain of human ActRIIB, linker, human Fc
B2: BMP5 (ligand, human, UniProt P22003 317-454, looked up)
chain: AANKRKNQNRNKSSSHQDSSRMSSVGDYNTSEQKQACKKHELYVSFRDLGWQDWIIAPEGYAAFYCDGECSFPLNAHMNATNHAIVQTLVHLMFPDHVPKPCCAPTKLNAISVLYFDDSSNVILKKYRNMVVRSCGCH
B3: ActRIIB(L79D 25-131)-mFc (Fc fusion)
chain: ETRECIYYNANWELERTNQSGLERCEGEQDKRLHCYASWRNSSGTIELVKKGCWDDDFNCYDRQECVATEENPQVYFCCCEGNFCNERFTHLPEAGGPEVTYEPPPT
notes: not shown: linker and mouse Fc domain
B4: ALK1-mFc (Fc fusion, mouse, UniProt Q61288 23-119, looked up)
chain: DLAKPSKLVNCTCESPHCKRPFCQGSWCTVVLVREQGRHPQVYRGCGSLNQELCLGRPTEFLNHHCCYRSFCNHNVSLMLEATQTPSEEPEVDAHLP
notes: extracellular domain; Mouse ALK1 fused to a murine Fc domain with a linker; also called mALK1-mFc; not shown: linker and murine Fc domain
B5: hENG(258-346)-hFc (Fc fusion)
chain: YVSWLIDANHNMQIWTTGEYSFKIFPEKNIRGFKLPDTPQGLLGEARMLNASIVASFVELPLASIVSLHASSCGGRLQTSPAPIQTTPP
notes: HEK 293, purified; not shown: linker and human IgG1 Fc domain
B6: hENG(360-457)-hFc (Fc fusion)
chain: QTKCADDAMTLVLKKELVAHLKCTITGLTFWDPSCEAEDRGDKFVLRSAYSSCGMQVSASMISNEAVVNILSSSSPQRKKVHCLNMDSLSFQLGLYLS
notes: Expressed in COS cells, not purified; not shown: linker and human IgG1 Fc domain
B7: hENG(360-437)-hFc (Fc fusion)
chain: QTKCADDAMTLVLKKELVAHLKCTITGLTFWDPSCEAEDRGDKFVLRSAYSSCGMQVSASMISNEAVVNILSSSSPQR
notes: as for B6

Key:
BMP10 [1] = molecular target: T1, BMP10; test: SPR (Biacore), ligand amine-coupled to CM5 chip, Fc fusion injected
BMP9 [2] = molecular target: T2, BMP9; test: as above
BMP6 = molecular target: T3, BMP6; test: as above
BMP5 [3] = molecular target: B2; test: as above
BMP10pro(22-315)-mFc = molecular target: T4, BMP10pro(22-315)-mFc; test: SPR (Biacore), BMP10pro-Fc captured by anti-Fc antibody, ligand injected
Experimental: (§1) The BMP10pro-Fc proteins were separately was captured onto the system using an anti-Fc antibody, and ligands were injected and allowed to flow over the captured receptor protein. […] The mouse Fc equivalent constructs behaved similarly. […] The affinity of BMP10pro(22-315)-hFc for BMP3b was not assessed.

BMP10pro(22-312)-mFc = molecular target: T5, BMP10pro(22-312)-mFc; test: as above
Experimental: as §1

BMP10 [4] = molecular target: T1, BMP10; test: SPR (Biacore), ligand amine-coupled to chip, Fc fusion injected
BMP5 [5] = molecular target: B2; test: as above
BMP9 [6] = molecular target: T2, BMP9; test: SPR (Biacore), ligand amine-coupled to chip, Fc fusion injected; the hFc form had only transient affinity for BMP9
Excerpt: Ligands were immobilized on a Biacore™ CMS chip using standard amine-coupling procedure.

BMP9 [7] = molecular target: T2, BMP9; test: SPR, captured hENG-hFc, soluble BMP9; '-' = Binding undetectable
Experimental: (§2) SPR methodology was used to screen these hENG-hFc protein variants for high-affinity binding to human BMP9 and BMP10. In these experiments, captured hENG-hFc proteins were exposed to soluble BMP9 or BMP10 at 100 nM each.

BMP10 [8] = molecular target: T1, BMP10; test: SPR, captured hENG-hFc, soluble BMP10; '-' = Binding undetectable
Experimental: as §2

B1
Kd (BMP10 [1]): 17.3 pM | Kd (BMP9 [2]): 33.5 pM | Kd (BMP6): 164 pM | Kd (BMP5 [3]): 2920 pM

B2
binding result (BMP10pro(22-315)-mFc): binds | binding result (BMP10pro(22-312)-mFc): binds

B3
binding result (BMP10 [4]): binds | binding result (BMP5 [5]): no binding | binding result (BMP9 [6]): binds

B4
binding result (BMP10 [1]): binds | binding result (BMP9 [2]): binds | binding result (BMP6): no binding | binding result (BMP5 [3]): no binding

B5
binding result (BMP9 [7]): no binding (tested: 100 nM) | binding result (BMP10 [8]): no binding (tested: 100 nM)

B6
binding result (BMP9 [7]): no binding (tested: 100 nM) | binding result (BMP10 [8]): no binding (tested: 100 nM)

B7
binding result (BMP9 [7]): no binding (tested: 100 nM) | binding result (BMP10 [8]): no binding (tested: 100 nM)
